Assay results from patent US20220275053A1, “MODIFIED […] PEPTIDE LIGANDS” (BicycleTx Limited, priority 2019, published 2022).
*1 amine or outer side, *2 acyl side, *3 side chain or, on linkers, in order; H or OH if unused. Bridges are numbered along the chain shown (N, C = ends). Where no end group is shown, it is not given here. [ ]: non-standard residue; d: D form. PYA = propargyl-acid (alkyne used for click attachment); TATA = O=C(CC[*:1])N1CN(C(=O)CC[*:2])CN(C(=O)CC[*:3])C1; tBuAla = CC(C)(C)C[C@H](N)C(=O)O; Nle = CCCC[C@H](N)C(=O)O

B1: BCY15416 (peptide)
peptide: Ac-C[tBuAla]PE[dK](PYA)PYCFADPY[Nle]CA
modifications: linker 1-8-15 via TATA; also: dimer: joined through PYA directly to central hinge moiety D, Alexa Fluor 488 on the hinge without spacer (formula (II))
notes: also called fluorescently labelled CD137 dimer; CD137 dimer
B2: BCY9932 (peptide)
peptide: ACIEEGQYCFADPYXCX
modifications: N-terminal acetyl; Nle (norleucine) at position 12 of the core; C-terminal Dap(PYA) amide (CONH2); the three Cys cyclised on the TATA scaffold; joined through PYA to spacer SA (n = 10) on central hinge moiety B; Alexa Fluor 488 on the hinge without spacer (formula (II))
notes: also called fluorescent CD137 multimer; fluorescent trimer
B3: BCY7340 (peptide)
peptide: CIEEGQYCFADPYMCAX
modifications: N-terminal acetyl; C-terminal Pra (propargylglycine) amide (CONH2); the three Cys cyclised on the TATA scaffold; joined through Pra to spacer SA (n = 23) on central hinge moiety C; fluorescein on the hinge without spacer (formula (II))
notes: also called fluorescent CD137 multimer; fluorescent CD137 dimer

What was measured:
human CD137 [1] = biological target: T1, human CD137 (human, UniProt Q07011 24-255); assay: flow cytometry on CD3-stimulated human PBMCs, apparent affinity (kd,app), CD4+ CD137+ population, donor 217071
T1 construct: whole, on cells; Endogenous receptor on CD3-stimulated human PBMCs or purified CD8+ T cells; also called CD137 receptor; 4-1BB
T1 sequence (Q07011 24-255): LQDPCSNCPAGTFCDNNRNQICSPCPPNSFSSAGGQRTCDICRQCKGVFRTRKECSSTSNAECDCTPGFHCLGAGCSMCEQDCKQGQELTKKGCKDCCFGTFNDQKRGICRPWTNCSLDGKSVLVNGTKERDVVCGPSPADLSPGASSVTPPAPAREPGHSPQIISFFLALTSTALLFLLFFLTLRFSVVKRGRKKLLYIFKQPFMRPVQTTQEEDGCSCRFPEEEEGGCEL
Experimental: (§1) Plates were then incubated for 1 hour at 37° C., 5% CO₂. Post-incubation, plate was centrifuged at 500 rpm for 5 minutes and supernatant discarded. Samples were then washed once in 200 μL of 1× phosphate buffer saline (PBS; Gibco™ 10-010-023) at 500 rpm for 5 minutes. Cells were resuspended in 200 μL of PBS and transferred to a 96-well V-bottom polypropylene plate (Greiner Bio-One 651201). Samples were then centrifuged at 500 rpm for 5 minutes and supernatant was discarded.
(§2) Preparation of samples for flow cytometry: Zombie Violet™ Fixable Viability Dye (BioLegend® 423113) was prepared as a 1:1000 dilution in PBS and 100 μL of viability dye was added to each well and incubated in the dark at 4° C. for 30 minutes. Subsequently, wells were washed with 100 μL of PBS for 5 minutes at 500 rpm and supernatant was discarded. […] Cells resuspended in 200 μL of stain buffer were kept at 4° C. and in the dark until read by BD FACSCelesta™ flow cytometer and FCS files were analyzed in FlowJo™.
(§3) Cells were gated on lymphocytes→singlets→live→CD4+ or CD8+→CD137+/− and the geometric mean of Alexa Fluor® 488 (conjugated to BCY15416) was calculated from the CD137+ and CD137− populations shown below. […] Calculated binding affinity (kd,app) for each donor appear in Table 5. […]

human CD137 [2] = biological target: T1, human CD137; assay: flow cytometry on CD3-stimulated human PBMCs, apparent affinity (kd,app), CD8+ CD137+ population, donor 214047
Experimental: as §1, §2, §3

human CD137 [3] = biological target: T1, human CD137; assay: flow cytometry on CD3-stimulated human PBMCs, apparent affinity (kd,app), CD4+ CD137+ population, donor 214026
Experimental: as §1, §2, §3

human CD137 [4] = biological target: T1, human CD137; assay: flow cytometry on CD3-stimulated human PBMCs, apparent affinity (kd,app), CD8+ CD137+ population, donor 217071
Experimental: as §1, §2, §3

human CD137 [5] = biological target: T1, human CD137; assay: flow cytometry on CD3-stimulated human PBMCs, apparent affinity (kd,app), CD4+ CD137+ population, donor 214047
Experimental: as §1, §2, §3

human CD137 [6] = biological target: T1, human CD137; assay: flow cytometry on CD3-stimulated human PBMCs, apparent affinity (kd,app), CD8+ CD137+ population, donor 214026
Experimental: as §1, §2, §3

human CD137 [7] = biological target: T1, human CD137; assay: flow cytometry, direct binding to activated human CD8+/CD137+ T cells

Binder	Kd (human CD137 [1]) [nM]	Kd (human CD137 [2]) [nM]	Kd (human CD137 [3]) [nM]	Kd (human CD137 [4]) [nM]	Kd (human CD137 [5]) [nM]	Kd (human CD137 [6]) [nM]	binding result (human CD137 [7])
B1	0.13	0.118	0.875	0.13	0.144	0.114	
B2							binds
B3							binds
